Assay results taken from publication PMC10802681, “Structures of the essential efflux pump EfpA from Mycobacterium tuberculosis reveal the mechanisms of substrate transport and small-molecule inhibition” (Research Square, 2024).

Tests used:
cryo-EM structure = target: the molecule itself; assay: cryo-EM structure
[1] = target: the molecule itself; assay: SEC + other: negative-stain EM

Protein	stoichiometry N (cryo-EM structure)	binding result [1]
MtEfpA (EfpA from Mycobacterium tuberculosis), wild type, with C-terminal GFP and Strep-Tag II (natural protein, Forms an antiparallel dimer in LMNG-CHS; predominantly monomeric in DDM-CHS; No tag cleavage is described; also called MtEfpA-cGFP; MtEfpA-GFP; not shown: GFP, C-terminal, kept) MTALNDTERAVRNWTAGRPHRPAPMRPPRSEETASERPSRYYPTWLPSRSFIAAVIAIGGMQLLATMDSTVAIVALPKIQNELSLSDAGRSWVITAYVLTFGGLMLLGGRLGDTIGRKRTFIVGVALFTISSVLCAVAWDEATLVIARLSQGVGSAIASPTGLALVATTFPKGPARNAATAVFAAMTAIGSVMGLVVGGALTEVSWRWAFLVNVPIGLVMIYLARTALRETNKERMKLDATGAILATLACTAAVFAFSIGPEKGWMSGITIGSGLVALAAAVAFVIVERTAENPVVPFHLFRDRNRLVTFSAILLAGGVMFSLTVCIGLYVQDILGYSALRAGVGFIPFVIAMGIGLGVSSQLVSRFSPRVLTIGGGYLLFGAMLYGSFFMHRGVPYFPNLVMPIVVGGIGIGMAVVPLTLSAIAGVGFDQIGPVSAIALMLQSLGGPLVLAVIQAVITSRTLYLGGTTGPVKFMNDVQLAALDHAYTYGLLWVAGAAIIVGGMALFIGYTPQQVAHAQEVKEAIDAGEL	2	
MtEfpA L195D mutant (natural protein) MTALNDTERAVRNWTAGRPHRPAPMRPPRSEETASERPSRYYPTWLPSRSFIAAVIAIGGMQLLATMDSTVAIVALPKIQNELSLSDAGRSWVITAYVLTFGGLMLLGGRLGDTIGRKRTFIVGVALFTISSVLCAVAWDEATLVIARLSQGVGSAIASPTGLALVATTFPKGPARNAATAVFAAMTAIGSVMGDVVGGALTEVSWRWAFLVNVPIGLVMIYLARTALRETNKERMKLDATGAILATLACTAAVFAFSIGPEKGWMSGITIGSGLVALAAAVAFVIVERTAENPVVPFHLFRDRNRLVTFSAILLAGGVMFSLTVCIGLYVQDILGYSALRAGVGFIPFVIAMGIGLGVSSQLVSRFSPRVLTIGGGYLLFGAMLYGSFFMHRGVPYFPNLVMPIVVGGIGIGMAVVPLTLSAIAGVGFDQIGPVSAIALMLQSLGGPLVLAVIQAVITSRTLYLGGTTGPVKFMNDVQLAALDHAYTYGLLWVAGAAIIVGGMALFIGYTPQQVAHAQEVKEAIDAGEL		binds
MtEfpA T324D mutant (natural protein) MTALNDTERAVRNWTAGRPHRPAPMRPPRSEETASERPSRYYPTWLPSRSFIAAVIAIGGMQLLATMDSTVAIVALPKIQNELSLSDAGRSWVITAYVLTFGGLMLLGGRLGDTIGRKRTFIVGVALFTISSVLCAVAWDEATLVIARLSQGVGSAIASPTGLALVATTFPKGPARNAATAVFAAMTAIGSVMGLVVGGALTEVSWRWAFLVNVPIGLVMIYLARTALRETNKERMKLDATGAILATLACTAAVFAFSIGPEKGWMSGITIGSGLVALAAAVAFVIVERTAENPVVPFHLFRDRNRLVTFSAILLAGGVMFSLDVCIGLYVQDILGYSALRAGVGFIPFVIAMGIGLGVSSQLVSRFSPRVLTIGGGYLLFGAMLYGSFFMHRGVPYFPNLVMPIVVGGIGIGMAVVPLTLSAIAGVGFDQIGPVSAIALMLQSLGGPLVLAVIQAVITSRTLYLGGTTGPVKFMNDVQLAALDHAYTYGLLWVAGAAIIVGGMALFIGYTPQQVAHAQEVKEAIDAGEL		binds
MtEfpA G502D mutant (natural protein) MTALNDTERAVRNWTAGRPHRPAPMRPPRSEETASERPSRYYPTWLPSRSFIAAVIAIGGMQLLATMDSTVAIVALPKIQNELSLSDAGRSWVITAYVLTFGGLMLLGGRLGDTIGRKRTFIVGVALFTISSVLCAVAWDEATLVIARLSQGVGSAIASPTGLALVATTFPKGPARNAATAVFAAMTAIGSVMGLVVGGALTEVSWRWAFLVNVPIGLVMIYLARTALRETNKERMKLDATGAILATLACTAAVFAFSIGPEKGWMSGITIGSGLVALAAAVAFVIVERTAENPVVPFHLFRDRNRLVTFSAILLAGGVMFSLTVCIGLYVQDILGYSALRAGVGFIPFVIAMGIGLGVSSQLVSRFSPRVLTIGGGYLLFGAMLYGSFFMHRGVPYFPNLVMPIVVGGIGIGMAVVPLTLSAIAGVGFDQIGPVSAIALMLQSLGGPLVLAVIQAVITSRTLYLGGTTGPVKFMNDVQLAALDHAYTYGLLWVAGAAIIVDGMALFIGYTPQQVAHAQEVKEAIDAGEL		binds
MtEfpA G377D mutant (natural protein) MTALNDTERAVRNWTAGRPHRPAPMRPPRSEETASERPSRYYPTWLPSRSFIAAVIAIGGMQLLATMDSTVAIVALPKIQNELSLSDAGRSWVITAYVLTFGGLMLLGGRLGDTIGRKRTFIVGVALFTISSVLCAVAWDEATLVIARLSQGVGSAIASPTGLALVATTFPKGPARNAATAVFAAMTAIGSVMGLVVGGALTEVSWRWAFLVNVPIGLVMIYLARTALRETNKERMKLDATGAILATLACTAAVFAFSIGPEKGWMSGITIGSGLVALAAAVAFVIVERTAENPVVPFHLFRDRNRLVTFSAILLAGGVMFSLTVCIGLYVQDILGYSALRAGVGFIPFVIAMGIGLGVSSQLVSRFSPRVLTIGGDYLLFGAMLYGSFFMHRGVPYFPNLVMPIVVGGIGIGMAVVPLTLSAIAGVGFDQIGPVSAIALMLQSLGGPLVLAVIQAVITSRTLYLGGTTGPVKFMNDVQLAALDHAYTYGLLWVAGAAIIVGGMALFIGYTPQQVAHAQEVKEAIDAGEL		binds
